Positions count from the first letter of the chain named.
T1: Human CD19-his protein (human, UniProt P15391 20-291)
T1 construct: bought protein; also called human CD19 protein; recombinant human CD19-His; not shown: His tag
T1 sequence (looked up): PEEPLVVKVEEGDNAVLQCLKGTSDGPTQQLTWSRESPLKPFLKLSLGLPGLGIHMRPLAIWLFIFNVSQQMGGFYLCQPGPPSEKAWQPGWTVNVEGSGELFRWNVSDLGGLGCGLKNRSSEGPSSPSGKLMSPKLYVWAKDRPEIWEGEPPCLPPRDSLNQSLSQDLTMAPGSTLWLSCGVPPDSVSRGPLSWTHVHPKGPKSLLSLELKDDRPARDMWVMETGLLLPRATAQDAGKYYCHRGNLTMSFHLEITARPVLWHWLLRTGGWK

T2: human CD19 exon1-3-his protein (human, UniProt P15391 20-186, limits assumed)
T2 construct: made in HEK293E cells; also called membrane-distal end; not shown: His tag
T2 sequence (looked up): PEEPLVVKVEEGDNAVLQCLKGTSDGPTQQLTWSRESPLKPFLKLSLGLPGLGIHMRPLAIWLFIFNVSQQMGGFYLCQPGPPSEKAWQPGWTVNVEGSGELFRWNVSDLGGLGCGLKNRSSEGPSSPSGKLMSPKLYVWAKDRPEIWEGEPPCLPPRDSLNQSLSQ

T3: murine CD19 protein (murine, UniProt P25918 17-287, limits assumed)
T3 construct: bought protein; also called commercial murine CD19
T3 sequence (looked up): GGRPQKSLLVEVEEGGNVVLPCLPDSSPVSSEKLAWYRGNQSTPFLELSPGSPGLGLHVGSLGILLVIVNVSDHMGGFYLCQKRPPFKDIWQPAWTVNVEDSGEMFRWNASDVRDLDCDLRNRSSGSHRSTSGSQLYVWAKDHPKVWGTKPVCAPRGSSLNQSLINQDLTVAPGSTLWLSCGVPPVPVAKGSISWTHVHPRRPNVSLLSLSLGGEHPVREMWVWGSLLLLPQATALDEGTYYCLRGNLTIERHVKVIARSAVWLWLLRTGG

B1: F5.10.6 (antibody, human IgG1, V domains shown)
VH: DVQLQESGPGLVKPSQSLSLTCSVTDYSITSGYYWTWIRQFPGNKLEWMGYISYDGSTNYNPSLKNRFSITRDTSKNQFFLKLNSVIIEDTATYYCARDRMSTTWYFDVWGTGTTVTVSS
VL: DIVLTQSPASLAVSLGQRATISCRASESVDNYGISFMHWYQQKPGQPPKLLIYRASKTESGIPARFSGSGSRTDFTLTINPVETDDVATYYCQQSNKYPRTFGGGTKVEIK
notes: human-murine chimeric antibody, human IgG1
B2: F5.7.1 (antibody, human IgG1, V domains shown)
VH: QVTLKESGPGILQPSQTLSLTCSFSGFSLTTFGMGVGWIRQPSGKGLEWLTHIWWDDDKYYNPALKSRLTISKDTSKNQVFLRIANVDTADTATYYCARVITTGVPYFDYWGQGTTLTVSS
VL: ENVLTQSPAIMSASPGEKVTMTCRASSSVSSSYLYWYQQKSGASPKLWISSTSNLASGVPARFSGSGSGTSYSLTINSVEAEDAATYYCQQYSGYPWTFGGGTKLEIK
notes: as for B1
B3: F5.8.6 (antibody, human IgG1, V domains shown)
VH: QVQLHQPGAELVMPGASVTLSCKASGYTFTSYWMHWVKQRPGQGLEWIGEIDPSDSYTTYDQKFKGKATLTVDKFSSTAYMQFSSLTSEDSAVYYCARLTGNHLDYWGQGTTLTVSS
VL: DIVMTQSHKFMSSSVGDRVSITCKASQDVSPAVAWYQQKPGQSPKLLIYSTSYRNTGVPDRFTGSGSGTDFTFTISSVQAEDLAVYYCQQHYSIPLTFGAGTKLELK
notes: as for B1
B4: F3.113.16 (antibody, human IgG1, V domains shown)
VH: QVQLQQPGAELVKPGASVKLSCKASGYTFTNYWMQWVKQRPGQGLEWIGEIDPSDSYINYNQKFKGKATLTADTSSSTAYMQLSSLTYEDSAVYYCARPVTVPWYFDVWGTGTTVTVSS
VL: EIVLTQSPTTMAASPGEKITITCSATSSISSNYLHWYQQKPGFSPKLLIYRTSNLASGVPARFSGSGSGTSYSLTIGTMEAEDVATYYCQQGSAIPRIFTFGSGTKLEIK
notes: as for B1
B5: F3.121.4 (antibody, human IgG1, V domains shown)
VH: QVQLQQPGAELVVPGTSVKLSCKASGYTFTNYWMHWVKQRPGQGLEWIGEIDPSDNYANYNQEFQGKATLTVDKSSSTAYMQLSSLTSDDSAVYYCARHDGYFGALDYWGQGTSVTVSS
VL: B4 VL with T26S, L47F, G92A, A94S, I98M
notes: human-murine chimeric antibody, human IgG1; also called chimeric antibody F3.121.4
B6: F3.64.4 (antibody, human IgG1, V domains shown)
VH: EVQLQQSGPELVKPGASVKISCKASGYTFTDYHINWVKQSHGKSPEWIGDINPNNGGTTYNQKFKDKATLTVDKSSSTAFMELRSLTSEDSAVYYCARFITTVVAWYFDVWGTGTTVTVSS
VL: DIQMTQSPASLSVSVGETVTITCRASENIYSNLAWYQQKQGKSPQLLVYAATNLADGVPSRFSGSGSGTQYSLKINSLQSEDFGNYYCQRFWDTPRTFGGGTKLEIK
notes: as for B1
B7: F1-mab003 (antibody, human IgG1, V domains shown)
VH: EVQLQQSGPELVKPGASVKMSCKASGYTFTDYVMHWVRQTPGQGLEWIGYFNPYNDGTNYNEKFKVKATLTSDKSSTTAYMELSSLTSEDSAVYYCARGVYYYGRDFDYWGQGTTLTVSS
VL: DVVLTQTPLSLPVSLGDQASISCRSSQSLENSNGNSYLNWYLQKPGQSPQLLIYRVSNRFSGVLDRFSGSGSGTDFTLKISRVEAEDLGVYFCLQITHVPWTFGGGTKLEIK
notes: as for B1
B8: F4.272.13 (antibody, human IgG1, V domains shown)
VH: QVQLKESGPGLVAPSQSLSITCTVSGFSLTDYGVSWIRQPPGKGLEWLGVIWGSETTFYNSALKSRLSISKDNSKSQLFLQMNSLQADDTAIYYCAKHHYYGGSFSMDYWGQGTSVTVSS
VL: DIQMTQTTSSLSASLGDRVTISCRASQDINNYLNWYQQKPDGTVKFLIYYTSRLHSGVPSRFSGSGSGTDYSLTISDLEQEDIATYFCQQGNTLPYTFGGGTKLEIK
notes: as for B1
B9: F4.18.13 (antibody, human IgG1, V domains shown)
VH: QVQLQQSGPELVKPGASVKISCKASGYAFSSFWMNWVKQRPGEGLEWIGRIYPGDGDTNYNGKFKGKATLTADDSSSTAYMQLSSLTSVDSAVYFCAREVIAAVVTTDFDYWGQGTTLTVSS
VL: B8 VL with A25T, N30S, Q37L, F46L, R53G, D77N, Q80P, N92K
notes: as for B1
B10: F2.15.26 (antibody, human IgG1, V domains shown)
VH: QVQLKESGPGLVAPSQSLSITCTVSGFSLTDYGVSWIRQSPGKGLEWLGVIWGSGDTYYNSVLESRLSINKDNSKNQVFLKMNSLQTDDAAMYFCAKHSYYGGSFAMDYWGQGTSVTVSS
VL: B8 VL with N30S, F46L, D77N, N92K, Y96W
notes: as for B1

Biological target: T1, Human CD19-his protein
Assay: ELISA, antibody at 100 nM

Binder	OD450
B1	1.52
B2	1.91
B3	0.96
B4	0.38
B5	0.82
B6	0.83
B7	1.98
B8	2.25
B9	1.69
B10	1.54

Biological target: T1, Human CD19-his protein
Assay: ELISA on coated human CD19-His
Protocol: Human CD19-his protein (purchased from ACROBiosystems, catalog number: CD9-H52H2) was diluted with PBS to a final concentration of 4 μg/mL, and then added to a 96-well ELISA plate at 100 μl/well. The plate was sealed with a plastic film and incubated overnight at 4° C., the plate was washed 2 times with PBS the next day, and then a blocking solution [PBS+2% (w/w) BSA] was added for blocking at room temperature for 2 h. The blocking solution was poured off, and 100 nM gradiently diluted CD19 chimeric antibody or control antibody was added at 50 μl/well. After incubation at 37° C. for 2 h, the plate was washed 3 times with PBS. […] TMB substrate was added at 50 μl/well, and incubated at room temperature for 10 min, and then a stop solution (1.0 N HCl) was added at 50 μl/well. The OD450 nm values were read by an ELISA microplate reader (Multimode Plate Reader, EnSight, purchased from Perkin Elmer).

Binder	EC50 (read off the curve) [nM]
B1	~0.2
B2	~0.07
B3	~0.4
B4	~0.5
B5	~0.1
B6	~0.1
B7	~0.07
B8	~0.04
B9	~0.05
B10	~0.09

Biological target: T1, Human CD19-his protein
Assay: ELISA, antibody at 1.00 nM

Binder	OD450
B1	1.48
B2	1.62
B3	0.69
B4	0.26
B5	0.88
B6	1.06
B7	1.58
B8	2.14
B9	2.01
B10	1.3

Biological target: T1, Human CD19-his protein
Assay: ELISA, antibody at 10 nM

Binder	OD450
B1	1.76
B2	1.78
B3	0.93
B4	0.34
B5	1.04
B6	1
B7	1.72
B8	2.14
B9	1.96
B10	1.4

Biological target: T1, Human CD19-his protein
Assay: ELISA, antibody at 0.10 nM

Binder	OD450
B1	0.68
B2	1.09
B3	0.22
B4	0.11
B5	0.5
B6	0.55
B7	1.09
B8	1.56
B9	1.32
B10	0.8

Biological target: T1, Human CD19-his protein
Assay: ELISA, antibody at 0.0001 nM

Binder	OD450
B1	0.05
B2	0.06
B3	0.05
B4	0.05
B5	0.05
B6	0.05
B7	0.06
B8	0.06
B9	0.05
B10	0.05

Biological target: T1, Human CD19-his protein
Assay: ELISA, antibody at 0.01 nM

Binder	OD450
B1	0.15
B2	0.25
B3	0.08
B4	0.06
B5	0.11
B6	0.13
B7	0.28
B8	0.33
B9	0.25
B10	0.18

Biological target: T1, Human CD19-his protein
Assay: ELISA, antibody at 0.001 nM

Binder	OD450
B1	0.07
B2	0.08
B3	0.06
B4	0.05
B5	0.06
B6	0.06
B7	0.08
B8	0.09
B9	0.08
B10	0.07

Biological target: T2, human CD19 exon1-3-his protein
Assay: ELISA, coated at 2 ug/mL

Binder	binding result
B1	no binding
B2	no binding
B3	no binding
B4	no binding
B5	no binding
B6	no binding
B7	no binding
B8	no binding
B9	no binding
B10	no binding

Biological target: T3, murine CD19 protein
Assay: ELISA, coated murine CD19
How it was run: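 Plates coated overnight at 4° C with recombinant murine or monkey CD19 and blocked with 2% BSA. Chimeric antibodies, serially diluted from 100 nM, bound for 2 h at 37° C. TMB development for 10 min with OD450 read-out.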

Binder	binding result
B1	no binding
B2	no binding
B3	no binding
B4	no binding
B5	no binding
B6	no binding
B7	no binding
B8	no binding
B9	no binding
B10	no binding

— patent US20250042994A1 (HAINAN SIMCERE ZAIMING PHARMACEUTICAL, published 2025)
